Laboratory results reported in patent publication US20170088593A1 (UNIVERSITY OF FLORIDA RESEARCH FOUNDATION, published 2017).

Target: Keap-1 (UniProt Q14145 1-624)
Experiment: cell-based or functional assay

Keap-1, sequence (Q14145 whole entry): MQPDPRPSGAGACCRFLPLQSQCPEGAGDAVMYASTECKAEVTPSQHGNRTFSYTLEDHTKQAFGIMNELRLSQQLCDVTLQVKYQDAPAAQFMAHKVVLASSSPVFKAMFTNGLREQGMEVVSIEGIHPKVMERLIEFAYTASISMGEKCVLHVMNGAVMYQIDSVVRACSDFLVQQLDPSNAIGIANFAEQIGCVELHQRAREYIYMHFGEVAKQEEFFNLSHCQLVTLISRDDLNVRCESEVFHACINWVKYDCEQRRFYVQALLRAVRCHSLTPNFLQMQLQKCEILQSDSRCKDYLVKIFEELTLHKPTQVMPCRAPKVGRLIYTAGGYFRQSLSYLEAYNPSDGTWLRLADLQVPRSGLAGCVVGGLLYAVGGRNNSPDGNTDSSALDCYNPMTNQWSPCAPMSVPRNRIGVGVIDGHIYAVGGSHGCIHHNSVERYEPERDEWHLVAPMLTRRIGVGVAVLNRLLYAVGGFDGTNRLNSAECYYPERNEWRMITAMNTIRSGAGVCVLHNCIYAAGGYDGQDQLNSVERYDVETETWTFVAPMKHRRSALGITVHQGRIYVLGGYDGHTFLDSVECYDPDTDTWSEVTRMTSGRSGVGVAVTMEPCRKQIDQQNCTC

For RKKRRQRRRLQLDEETGEFLPIQ [TatNrf2-14mer peptide (HIV-1 Tat cell penetrating peptide fused to the Nrf2 14mer)], the “GSTM1 mRNA (antioxidant enzyme and marker of the ARE response), RT-PCR in human retinal pigment epithelial cells treated with the TatNrf2 plasmid” value was 18 fold.
